Laboratory results from patent US20210388087A1 (Chugai, published 2021).

Target: T1, CD3 epsilon homodimer protein (UniProt P07766 23-126)
T1 construct: also called CD3 (CD3 epsilon)
Assay: SPR, antibody over immobilised CD3e homodimer;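 further: SPR at 25 °C with CD3 epsilon homodimer amine-coupled to a CM4 sensor chip and antibody flowed over as analyte in HBS-EP+ running buffer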

T1 sequence (P07766 23-126): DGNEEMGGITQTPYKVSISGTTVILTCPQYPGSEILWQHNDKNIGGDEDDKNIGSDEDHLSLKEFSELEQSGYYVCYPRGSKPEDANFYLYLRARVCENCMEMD

Binder | KD ratio to GLS3000
CE115HA000/GLS3000 S27eP (antibody, IgG1, name in Kabat numbering, V domains shown, one-arm IgG1) VH: QVQLVESGGGVVQPGRSLRLSCAASGFTFSNAWMHWVRQAPGKGLEWVAQIKAKSNNYATYYAESVKGRFTISRDDSKNSLYLQMNSLKTEDTAVYYCRYVHYGAYYGVDAWGQGTTVTVSS VL: DIVMTQSPLSLPVTPGEPASISCRSSQSLVHPNRNTYLHWYQQKPGQAPRLLIYKVSNRFSGVPDRFSGSGSGTDFTLKISRVEAEDVGVYYCGQGTQVPYTFGQGTKLEIK | 1.06
CE115HA000/GLS3000 S27eQ (antibody, IgG1, name in Kabat numbering, V domains shown, one-arm IgG1) VH: QVQLVESGGGVVQPGRSLRLSCAASGFTFSNAWMHWVRQAPGKGLEWVAQIKAKSNNYATYYAESVKGRFTISRDDSKNSLYLQMNSLKTEDTAVYYCRYVHYGAYYGVDAWGQGTTVTVSS VL: DIVMTQSPLSLPVTPGEPASISCRSSQSLVHQNRNTYLHWYQQKPGQAPRLLIYKVSNRFSGVPDRFSGSGSGTDFTLKISRVEAEDVGVYYCGQGTQVPYTFGQGTKLEIK | 1.08
CE115HA000/GLS3000 S27eR (antibody, IgG1, name in Kabat numbering, V domains shown, one-arm IgG1) VH: QVQLVESGGGVVQPGRSLRLSCAASGFTFSNAWMHWVRQAPGKGLEWVAQIKAKSNNYATYYAESVKGRFTISRDDSKNSLYLQMNSLKTEDTAVYYCRYVHYGAYYGVDAWGQGTTVTVSS VL: DIVMTQSPLSLPVTPGEPASISCRSSQSLVHRNRNTYLHWYQQKPGQAPRLLIYKVSNRFSGVPDRFSGSGSGTDFTLKISRVEAEDVGVYYCGQGTQVPYTFGQGTKLEIK | 1.35
CE115HA000/GLS3000 S27eT (antibody, IgG1, name in Kabat numbering, V domains shown, one-arm IgG1) VH: QVQLVESGGGVVQPGRSLRLSCAASGFTFSNAWMHWVRQAPGKGLEWVAQIKAKSNNYATYYAESVKGRFTISRDDSKNSLYLQMNSLKTEDTAVYYCRYVHYGAYYGVDAWGQGTTVTVSS VL: DIVMTQSPLSLPVTPGEPASISCRSSQSLVHTNRNTYLHWYQQKPGQAPRLLIYKVSNRFSGVPDRFSGSGSGTDFTLKISRVEAEDVGVYYCGQGTQVPYTFGQGTKLEIK | 0.98
CE115HA000/GLS3000 S27eV (antibody, IgG1, name in Kabat numbering, V domains shown, one-arm IgG1) VH: QVQLVESGGGVVQPGRSLRLSCAASGFTFSNAWMHWVRQAPGKGLEWVAQIKAKSNNYATYYAESVKGRFTISRDDSKNSLYLQMNSLKTEDTAVYYCRYVHYGAYYGVDAWGQGTTVTVSS VL: DIVMTQSPLSLPVTPGEPASISCRSSQSLVHVNRNTYLHWYQQKPGQAPRLLIYKVSNRFSGVPDRFSGSGSGTDFTLKISRVEAEDVGVYYCGQGTQVPYTFGQGTKLEIK | 0.95
CE115HA000/GLS3000 S27eW (antibody, IgG1, name in Kabat numbering, V domains shown, one-arm IgG1) VH: QVQLVESGGGVVQPGRSLRLSCAASGFTFSNAWMHWVRQAPGKGLEWVAQIKAKSNNYATYYAESVKGRFTISRDDSKNSLYLQMNSLKTEDTAVYYCRYVHYGAYYGVDAWGQGTTVTVSS VL: DIVMTQSPLSLPVTPGEPASISCRSSQSLVHWNRNTYLHWYQQKPGQAPRLLIYKVSNRFSGVPDRFSGSGSGTDFTLKISRVEAEDVGVYYCGQGTQVPYTFGQGTKLEIK | 1.32
CE115HA000/GLS3000 S27eY (antibody, IgG1, name in Kabat numbering, V domains shown, one-arm IgG1) VH: QVQLVESGGGVVQPGRSLRLSCAASGFTFSNAWMHWVRQAPGKGLEWVAQIKAKSNNYATYYAESVKGRFTISRDDSKNSLYLQMNSLKTEDTAVYYCRYVHYGAYYGVDAWGQGTTVTVSS VL: DIVMTQSPLSLPVTPGEPASISCRSSQSLVHYNRNTYLHWYQQKPGQAPRLLIYKVSNRFSGVPDRFSGSGSGTDFTLKISRVEAEDVGVYYCGQGTQVPYTFGQGTKLEIK | 1.1
CE115HA000/GLS3000 S52A (antibody, IgG1, name in Kabat numbering, V domains shown, one-arm IgG1) VH: QVQLVESGGGVVQPGRSLRLSCAASGFTFSNAWMHWVRQAPGKGLEWVAQIKAKSNNYATYYAESVKGRFTISRDDSKNSLYLQMNSLKTEDTAVYYCRYVHYGAYYGVDAWGQGTTVTVSS VL: DIVMTQSPLSLPVTPGEPASISCRSSQSLVHSNRNTYLHWYQQKPGQAPRLLIYKVANRFSGVPDRFSGSGSGTDFTLKISRVEAEDVGVYYCGQGTQVPYTFGQGTKLEIK | 0.9
CE115HA000/GLS3000 S52D (antibody, IgG1, name in Kabat numbering, V domains shown, one-arm IgG1) VH: QVQLVESGGGVVQPGRSLRLSCAASGFTFSNAWMHWVRQAPGKGLEWVAQIKAKSNNYATYYAESVKGRFTISRDDSKNSLYLQMNSLKTEDTAVYYCRYVHYGAYYGVDAWGQGTTVTVSS VL: DIVMTQSPLSLPVTPGEPASISCRSSQSLVHSNRNTYLHWYQQKPGQAPRLLIYKVDNRFSGVPDRFSGSGSGTDFTLKISRVEAEDVGVYYCGQGTQVPYTFGQGTKLEIK | 0.94
CE115HA000/GLS3000 S52P (antibody, IgG1, name in Kabat numbering, V domains shown, one-arm IgG1) VH: QVQLVESGGGVVQPGRSLRLSCAASGFTFSNAWMHWVRQAPGKGLEWVAQIKAKSNNYATYYAESVKGRFTISRDDSKNSLYLQMNSLKTEDTAVYYCRYVHYGAYYGVDAWGQGTTVTVSS VL: DIVMTQSPLSLPVTPGEPASISCRSSQSLVHSNRNTYLHWYQQKPGQAPRLLIYKVPNRFSGVPDRFSGSGSGTDFTLKISRVEAEDVGVYYCGQGTQVPYTFGQGTKLEIK | 7.38
CE115HA000/GLS3000 S52Q (antibody, IgG1, name in Kabat numbering, V domains shown, one-arm IgG1) VH: QVQLVESGGGVVQPGRSLRLSCAASGFTFSNAWMHWVRQAPGKGLEWVAQIKAKSNNYATYYAESVKGRFTISRDDSKNSLYLQMNSLKTEDTAVYYCRYVHYGAYYGVDAWGQGTTVTVSS VL: DIVMTQSPLSLPVTPGEPASISCRSSQSLVHSNRNTYLHWYQQKPGQAPRLLIYKVQNRFSGVPDRFSGSGSGTDFTLKISRVEAEDVGVYYCGQGTQVPYTFGQGTKLEIK | 1.01
CE115HA000/GLS3000 S52Y (antibody, IgG1, name in Kabat numbering, V domains shown, one-arm IgG1) VH: QVQLVESGGGVVQPGRSLRLSCAASGFTFSNAWMHWVRQAPGKGLEWVAQIKAKSNNYATYYAESVKGRFTISRDDSKNSLYLQMNSLKTEDTAVYYCRYVHYGAYYGVDAWGQGTTVTVSS VL: DIVMTQSPLSLPVTPGEPASISCRSSQSLVHSNRNTYLHWYQQKPGQAPRLLIYKVYNRFSGVPDRFSGSGSGTDFTLKISRVEAEDVGVYYCGQGTQVPYTFGQGTKLEIK | 1.02
CE115HA000/GLS3000 S56A (antibody, IgG1, name in Kabat numbering, V domains shown, one-arm IgG1) VH: QVQLVESGGGVVQPGRSLRLSCAASGFTFSNAWMHWVRQAPGKGLEWVAQIKAKSNNYATYYAESVKGRFTISRDDSKNSLYLQMNSLKTEDTAVYYCRYVHYGAYYGVDAWGQGTTVTVSS VL: DIVMTQSPLSLPVTPGEPASISCRSSQSLVHSNRNTYLHWYQQKPGQAPRLLIYKVSNRFAGVPDRFSGSGSGTDFTLKISRVEAEDVGVYYCGQGTQVPYTFGQGTKLEIK | 1.18
CE115HA000/GLS3000 S56D (antibody, IgG1, name in Kabat numbering, V domains shown, one-arm IgG1) VH: QVQLVESGGGVVQPGRSLRLSCAASGFTFSNAWMHWVRQAPGKGLEWVAQIKAKSNNYATYYAESVKGRFTISRDDSKNSLYLQMNSLKTEDTAVYYCRYVHYGAYYGVDAWGQGTTVTVSS VL: DIVMTQSPLSLPVTPGEPASISCRSSQSLVHSNRNTYLHWYQQKPGQAPRLLIYKVSNRFDGVPDRFSGSGSGTDFTLKISRVEAEDVGVYYCGQGTQVPYTFGQGTKLEIK | 1.11
CE115HA000/GLS3000 S56E (antibody, IgG1, name in Kabat numbering, V domains shown, one-arm IgG1) VH: QVQLVESGGGVVQPGRSLRLSCAASGFTFSNAWMHWVRQAPGKGLEWVAQIKAKSNNYATYYAESVKGRFTISRDDSKNSLYLQMNSLKTEDTAVYYCRYVHYGAYYGVDAWGQGTTVTVSS VL: DIVMTQSPLSLPVTPGEPASISCRSSQSLVHSNRNTYLHWYQQKPGQAPRLLIYKVSNRFEGVPDRFSGSGSGTDFTLKISRVEAEDVGVYYCGQGTQVPYTFGQGTKLEIK | 0.91
CE115HA000/GLS3000 S56F (antibody, IgG1, name in Kabat numbering, V domains shown, one-arm IgG1) VH: QVQLVESGGGVVQPGRSLRLSCAASGFTFSNAWMHWVRQAPGKGLEWVAQIKAKSNNYATYYAESVKGRFTISRDDSKNSLYLQMNSLKTEDTAVYYCRYVHYGAYYGVDAWGQGTTVTVSS VL: DIVMTQSPLSLPVTPGEPASISCRSSQSLVHSNRNTYLHWYQQKPGQAPRLLIYKVSNRFFGVPDRFSGSGSGTDFTLKISRVEAEDVGVYYCGQGTQVPYTFGQGTKLEIK | 1.12
CE115HA000/GLS3000 S56G (antibody, IgG1, name in Kabat numbering, V domains shown, one-arm IgG1) VH: QVQLVESGGGVVQPGRSLRLSCAASGFTFSNAWMHWVRQAPGKGLEWVAQIKAKSNNYATYYAESVKGRFTISRDDSKNSLYLQMNSLKTEDTAVYYCRYVHYGAYYGVDAWGQGTTVTVSS VL: DIVMTQSPLSLPVTPGEPASISCRSSQSLVHSNRNTYLHWYQQKPGQAPRLLIYKVSNRFGGVPDRFSGSGSGTDFTLKISRVEAEDVGVYYCGQGTQVPYTFGQGTKLEIK | 0.99
CE115HA000/GLS3000 S56H (antibody, IgG1, name in Kabat numbering, V domains shown, one-arm IgG1) VH: QVQLVESGGGVVQPGRSLRLSCAASGFTFSNAWMHWVRQAPGKGLEWVAQIKAKSNNYATYYAESVKGRFTISRDDSKNSLYLQMNSLKTEDTAVYYCRYVHYGAYYGVDAWGQGTTVTVSS VL: DIVMTQSPLSLPVTPGEPASISCRSSQSLVHSNRNTYLHWYQQKPGQAPRLLIYKVSNRFHGVPDRFSGSGSGTDFTLKISRVEAEDVGVYYCGQGTQVPYTFGQGTKLEIK | 0.96
CE115HA000/GLS3000 S56I (antibody, IgG1, name in Kabat numbering, V domains shown, one-arm IgG1) VH: QVQLVESGGGVVQPGRSLRLSCAASGFTFSNAWMHWVRQAPGKGLEWVAQIKAKSNNYATYYAESVKGRFTISRDDSKNSLYLQMNSLKTEDTAVYYCRYVHYGAYYGVDAWGQGTTVTVSS VL: DIVMTQSPLSLPVTPGEPASISCRSSQSLVHSNRNTYLHWYQQKPGQAPRLLIYKVSNRFIGVPDRFSGSGSGTDFTLKISRVEAEDVGVYYCGQGTQVPYTFGQGTKLEIK | 1.01
CE115HA000/GLS3000 S56K (antibody, IgG1, name in Kabat numbering, V domains shown, one-arm IgG1) VH: QVQLVESGGGVVQPGRSLRLSCAASGFTFSNAWMHWVRQAPGKGLEWVAQIKAKSNNYATYYAESVKGRFTISRDDSKNSLYLQMNSLKTEDTAVYYCRYVHYGAYYGVDAWGQGTTVTVSS VL: DIVMTQSPLSLPVTPGEPASISCRSSQSLVHSNRNTYLHWYQQKPGQAPRLLIYKVSNRFKGVPDRFSGSGSGTDFTLKISRVEAEDVGVYYCGQGTQVPYTFGQGTKLEIK | 1.21
CE115HA000/GLS3000 S56L (antibody, IgG1, name in Kabat numbering, V domains shown, one-arm IgG1) VH: QVQLVESGGGVVQPGRSLRLSCAASGFTFSNAWMHWVRQAPGKGLEWVAQIKAKSNNYATYYAESVKGRFTISRDDSKNSLYLQMNSLKTEDTAVYYCRYVHYGAYYGVDAWGQGTTVTVSS VL: DIVMTQSPLSLPVTPGEPASISCRSSQSLVHSNRNTYLHWYQQKPGQAPRLLIYKVSNRFLGVPDRFSGSGSGTDFTLKISRVEAEDVGVYYCGQGTQVPYTFGQGTKLEIK | 1.03
